# Laboratory results as given in PMC4662854, “Structure and function of the N‐terminal domain of the human mitochondrial calcium uniporter” (EMBO Reports, 2015).
# B1: MCU NTD-E (extended N-terminal domain of MCU, residues 75-185) (domain or fragment, human, UniProt Q8NE86-1 75-185, looked up)
# chain: VTVVYQNGLPVISVRLPSRRERCQFTLKPISDSVGVFLRQLQEEDRGIDRVAIYSPDGVRVAASTGIDLLLLDDFKLVINDLTYHVRPPKRDLLSHENAATLNDVKTLVQQ
# notes: mitochondrial calcium uniporter (MCU), human, NP_612366, residues 75-185; In the crystal residues 183-185 were not modelled and the imidazole ring of His170 is possibly modified by unidentified adducts; source: purified (Ni-NTA, SEC on Superdex 75) by a procedure similar to that of T4 lysozyme-MCU NTD; cloned into pColdII
# Biological target: the molecule itself
# Test: cross-linking; glutaraldehyde cross-linking of MCU NTD-E in solution, in PBS and in crystallization conditions
protein,measurement,value
B1,binding result,binds
